± gives the standard deviation of the averaged measurements.
Experiment: total protein half-life in vivo (active degradation + dilution); higher = more stable protein
[1] = E. coli NCM3722 delta-clpP delta-lon delta-hslV, growth: N-lim chemostat, doubling time 6 h
[2] = E. coli NCM3722 delta-clpP, growth: N-lim chemostat, doubling time 6 h
[3] = E. coli NCM3722 delta-smpB, growth: N-lim chemostat, doubling time 6 h
[4] = wild type E. coli NCM3722, growth: C-lim chemostat, doubling time 6 h
[5] = wild type E. coli NCM3722, growth: C-lim chemostat, doubling time 12 h
[6] = E. coli NCM3722 delta-hslV, growth: N-lim chemostat, doubling time 6 h
[7] = E. coli NCM3722 delta-lon, growth: N-lim chemostat, doubling time 6 h
[8] = wild type E. coli NCM3722, growth: C-lim chemostat, doubling time 3 h
[9] = wild type E. coli NCM3722, growth: N-lim chemostat, doubling time 6 h
[10] = wild type E. coli NCM3722, growth: N-lim chemostat, doubling time 12 h
[11] = wild type E. coli NCM3722, growth: P-lim chemostat, doubling time 6 h
[12] = wild type E. coli NCM3722, growth: P-lim chemostat, doubling time 12 h

MSAIDCIITAAGLSSRMGQWKMMLPWEQGTILDTSIKNALQFCSRIILVTGYRGNELHERYANQSNITIIHNPDYAQGLLTSVKAAVPAVQTEHCFLTHGDMPTLTIDIFRKIWSLRNDGAILPLHNGIPGHPILVSKPCLMQAIQRPNVTNMRQALLMGDHYSVEIENAEIILDIDTPDDFITAKERYTEI
total protein half-life in vivo [1]: 4.34 h
total protein half-life in vivo [2]: 3 ± 0.059 h
total protein half-life in vivo [3]: 1.3 h
total protein half-life in vivo [4]: 2.39 ± 0.048 h
total protein half-life in vivo [5]: 3.15 ± 0.1 h

MNIQCKRVYDPAEQSDGYRILVDRLWPRGIKKTDLALDEWDKEITPSTELRKAFHGEVVDYATFREQYLAELAQHEQEGKRLADIAKKQPLTLLYSAKNTTQNHALVLADWLRSL
total protein half-life in vivo [1]: 6.74 ± 1.5 h
total protein half-life in vivo [2]: 5.27 h
total protein half-life in vivo [6]: 3.16 ± 0.34 h
total protein half-life in vivo [7]: 4.88 ± 0.48 h
total protein half-life in vivo [3]: 3.51 ± 0.47 h
total protein half-life in vivo [8]: 2.37 ± 0.59 h
total protein half-life in vivo [4]: 4.57 h
total protein half-life in vivo [5]: 4.54 ± 0.79 h
total protein half-life in vivo [9]: 3.27 h
total protein half-life in vivo [10]: 4.71 h
total protein half-life in vivo [11]: 3.11 h
total protein half-life in vivo [12]: 5.24 ± 1.4 h

MPAVIDKALDFIGAMDVSAPTPSSMNESTAKGIFKYLKELGVPASAADITARADQEGWNPGFTEKMVGWAKKMETGERSVIKNPEYFSTYMQEELKALV
total protein half-life in vivo [1]: 1.25 ± 0.38 h
total protein half-life in vivo [2]: 0.88 h
total protein half-life in vivo [3]: 0.51 h
total protein half-life in vivo [8]: 0.644 ± 0.18 h
total protein half-life in vivo [4]: 0.706 h
total protein half-life in vivo [9]: 0.681 ± 0.18 h
total protein half-life in vivo [10]: 0.727 ± 0.045 h
total protein half-life in vivo [11]: 0.402 h
total protein half-life in vivo [12]: 1.25 h

MQEIYRFIDDAIEADRQRYTDIADQIWDHPETRFEEFWSAEHLASALESAGFTVTRNVGNIPNAFIASFGQGKPVIALLGEYDALAGLSQQAGCAQPTSVTPGENGHGCGHNLLGTAAFAAAIAVKKWLEQYGQGGTVRFYGCPGEEGGSGKTFMVREGVFDDVDAALTWHPEAFAGMFNTRTLANIQASWRFKGIAAHAANSPHLGRSALDAVTLMTTGTNFLNEHIIEKARVHYAITNSGGISPNVVQAQAEVLYLIRAPEMTDVQHIYDRVAKIAEGAALMTETTVECRFDKACSSYLPNRTLENAMYQALSHFGTPEWNSEELAFAKQIQATLTSNDRQNSLNNIAATGGENGKVFALRHRETVLANEVAPYAATDNVLAASTDVGDVSWKLPVAQCFSPCFAVGTPLHTWQLVSQGRTSIAHKGMLLAAKTMAATTVNLFLDSGLLQECQQEHQQVTDTQPYHCPIPKNVTPSPLK
total protein half-life in vivo [1]: 5.29 ± 0.17 h

MRSIARRTAVGAALLLVMPVAVWISGWRWQPGEQSWLLKAAFWVTETVTQPWGVITHLILFGWFLWCLRFRIKAAFVLFAILAAAILVGQGVKSWIKDKVQEPRPFVIWLEKTHHIPVDEFYTLKRAERGNLVKEQLAEEKNIPQYLRSHWQKETGFAFPSGHTMFAASWALLAVGLLWPRRRTLTIAILLVWATGVMGSRLLLGMHWPRDLVVATLISWALVAVATWLAQRICGPLTPPAEENREIAQREQES [P0A924]
total protein half-life in vivo [1]: 6.18 ± 0.47 h
total protein half-life in vivo [2]: 7.12 ± 0.17 h
total protein half-life in vivo [6]: 7.17 h
total protein half-life in vivo [7]: 5.52 ± 0.8 h
total protein half-life in vivo [3]: 5.95 ± 0.56 h
total protein half-life in vivo [4]: 6.009 ± 0.045 h
total protein half-life in vivo [5]: 14.4 ± 1.7 h
total protein half-life in vivo [9]: 6.36 ± 0.65 h
total protein half-life in vivo [10]: 11.9 ± 0.65 h
total protein half-life in vivo [11]: 6.14 ± 0.54 h
total protein half-life in vivo [12]: 10.7 ± 2 h

MAELLLGVNIDHIATLRNARGTAYPDPVQAAFIAEQAGADGITVHLREDRRHITDRDVRILRQTLDTRMNLEMAVTEEMLAIAVETKPHFCCLVPEKRQEVTTEGGLDVAGQRDKMRDACKRLADAGIQVSLFIDADEEQIKAAAEVGAPFIEIHTGCYADAKTDAEQAQELARIAKAATFAASLGLKVNAGHGLTYHNVKAIAAIPEMHELNIGHAIIGRAVMTGLKDAVAEMKRLMLEARG [P0A794]
total protein half-life in vivo [1]: 5.813 ± 0.038 h
total protein half-life in vivo [2]: 5.468 ± 0.049 h
total protein half-life in vivo [6]: 5.95 ± 0.48 h
total protein half-life in vivo [7]: 5.61 ± 0.29 h
total protein half-life in vivo [3]: 5.4 ± 0.14 h
total protein half-life in vivo [8]: 3.17 ± 0.12 h
total protein half-life in vivo [4]: 5.5 ± 0.1 h
total protein half-life in vivo [5]: 11.7 ± 0.53 h
total protein half-life in vivo [9]: 5.9 ± 0.39 h
total protein half-life in vivo [10]: 9.84 ± 0.17 h
total protein half-life in vivo [11]: 6.06 ± 0.43 h

MQPNDITFFQRFQDDILAGRKTITIRDESESHFKTGDVLRVGRFEDDGYFCTIEVTATSTVTLDTLTEKHAEQENMTLTELKKVIADIYPGQTQFYVIEFKCL
total protein half-life in vivo [2]: 5.77 ± 0.22 h
total protein half-life in vivo [6]: 5.77 ± 0.14 h
total protein half-life in vivo [7]: 6.02 ± 0.22 h
total protein half-life in vivo [3]: 6.22 ± 0.28 h
total protein half-life in vivo [8]: 3.49 ± 0.34 h
total protein half-life in vivo [4]: 5.2 ± 1.4 h
total protein half-life in vivo [5]: 10.4 ± 3.3 h
total protein half-life in vivo [9]: 6.12 ± 0.24 h
total protein half-life in vivo [10]: 11.3 ± 0.97 h
total protein half-life in vivo [11]: 6.47 ± 0.56 h
total protein half-life in vivo [12]: 14 ± 0.55 h

MQNNEQTEYKTVRGLTRGLMLLNMLNKLDGGASVGLLAELSGLHRTTVRRLLETLQEEGYVRRSPSDDSFRLTIKVRQLSEGFRDEQWISALAAPLLGDLLREVVWPTDVSTLDVDAMVVRETTHRFSRLSFHRAMVGRRLPLLKTASGLTWLAFCPEQDRKELIEMLASRPGDDYQLAREPLKLEAILARARKEGYGQNYRGWDQEEKIASIAVPLRSEQRVIGCLNLVYMASAMTIEQAAEKHLPALQRVAKQIEEGVESQAILVAGRRSGMHLR
total protein half-life in vivo [1]: 6.32 ± 0.84 h
total protein half-life in vivo [2]: 2.12 h
total protein half-life in vivo [6]: 1.85 ± 0.042 h
total protein half-life in vivo [7]: 2.59 h
total protein half-life in vivo [3]: 1.26 h
total protein half-life in vivo [8]: 1.55 ± 0.24 h
total protein half-life in vivo [4]: 2.35 ± 0.052 h
total protein half-life in vivo [5]: 3.26 ± 1.1 h
total protein half-life in vivo [9]: 1.85 ± 0.27 h
total protein half-life in vivo [11]: 1.72 ± 0.43 h
total protein half-life in vivo [12]: 2.94 ± 0.64 h

MAFRMSEQPRTIKIYNLLAGTNEFIGEGDAYIPPHTGLPANSTDIAPPDIPAGFVAVFNSDESSWHLVEDHRGKTVYDVASGNALFISELGPLPENVTWLSPEGEFQKWNGTAWVKDTEAEKLFRIREAEETKNNLMQVASEHIAPLQDAADLEIATEEEISLLEAWKKYRVLLNRVDTSTAQDIEWPALP
total protein half-life in vivo [1]: 3.03 h
total protein half-life in vivo [2]: 2.56 h
total protein half-life in vivo [6]: 1.99 h
total protein half-life in vivo [3]: 1.99 h
total protein half-life in vivo [8]: 1.9 h
total protein half-life in vivo [4]: 2.42 ± 0.94 h
total protein half-life in vivo [5]: 5.44 h
total protein half-life in vivo [9]: 3.48 h
total protein half-life in vivo [11]: 3.08 h
total protein half-life in vivo [12]: 7.47 ± 0.83 h
